Biological target: T1, Zyx FL WT-GFP (human, UniProt Q15942 1-572)
T1 sequence (looked up): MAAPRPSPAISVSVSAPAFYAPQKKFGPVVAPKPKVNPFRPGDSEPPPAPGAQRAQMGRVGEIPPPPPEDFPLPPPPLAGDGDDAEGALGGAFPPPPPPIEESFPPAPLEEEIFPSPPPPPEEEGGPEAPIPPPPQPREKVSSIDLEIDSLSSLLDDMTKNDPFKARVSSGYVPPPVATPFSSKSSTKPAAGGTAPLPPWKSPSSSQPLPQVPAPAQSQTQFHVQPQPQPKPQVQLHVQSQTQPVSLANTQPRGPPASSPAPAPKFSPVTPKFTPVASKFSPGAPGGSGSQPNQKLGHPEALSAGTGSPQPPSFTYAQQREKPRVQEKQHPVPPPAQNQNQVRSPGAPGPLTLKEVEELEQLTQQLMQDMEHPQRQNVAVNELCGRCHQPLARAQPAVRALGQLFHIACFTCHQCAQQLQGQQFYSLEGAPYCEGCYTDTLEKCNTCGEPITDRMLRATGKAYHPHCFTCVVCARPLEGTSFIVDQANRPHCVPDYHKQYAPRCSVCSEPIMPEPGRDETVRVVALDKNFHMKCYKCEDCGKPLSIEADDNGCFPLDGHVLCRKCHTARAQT
Experiment: cell-based or functional assay

B1: Tes FL-GFP (natural protein, UniProt Q9UGI8 1-421, looked up)
chain: MDLENKVKKMGLGHEQGFGAPCLKCKEKCEGFELHFWRKICRNCKCGQEEHDVLLSNEEDRKVGKLFEDTKYTTLIAKLKSDGIPMYKRNVMILTNPVAAKKNVSINTVTYEWAPPVQNQALARQYMQMLPKEKQPVAGSEGAQYRKKQLAKQLPAHDQDPSKCHELSPREVKEMEQFVKKYKSEALGVGDVKLPCEMDAQGPKQMNIPGGDRSTPAAVGAMEDKSAEHKRTQYSCYCCKLSMKEGDPAIYAERAGYDKLWHPACFVCSTCHELLVDMIYFWKNEKLYCGRHYCDSEKPRCAGCDELIFSNEYTQAENQNWHLKHFCCFDCDSILAGEIYVMVNDKPVCKPCYVKNHAVVCQGCHNAIDPEVQRVTYNNFSWHASTECFLCSCCSKCLIGQKFMPVEGMVFCSVECKKRMS
- quantity of Tes FL-GFP in focal adhesions of zyxin-null fibroblasts with Zyx FL WT-DsRed against the DsRed control (confocal immunofluorescence): 2 fold
